According to patent publication US20230218637A1, “COMPOSITIONS AND METHODS FOR DIAGNOSING, PREVENTING, AND TREATING AMYOTROPHIC LATERAL SCLEROSIS IN PATIENTS WITH HYPOFUNCTIONAL ANTI-TRYPSIN ACTIVITY” (Motor Life Sciences, LLC, priority 2020, published 2023):

Key:
[1] = system: mutant SOD mice (SOD1G93A); assay: Ursolic acid treatment of ALS mouse model (grip test, rotarod); type: in vivo; settings: ursolic acid 200 mg/kg daily over eight weeks
Experimental: In ALS mouse models, like mutant SOD mice (SOD1G93A)), ALS is diagnosed based on hanging wire grip test (where the latency of falling is measured in seconds), grip strength analysis, rotarod time trial test, where a decrease in time balanced on the rod correlates to disease positive mice. Weight is measured to determine hypotrophy of muscle mass over time. Low levels of serum serpinA1 proteins levels, serum protease inhibitor function, serum trypsin protein levels, and serum functional trypsin level correlates with ALS. Once the mice have been diagnosed with ALS, the mice are given daily treatments of ursolic acid (200 mg/kg) over the course of eight weeks. Levels of serum serpinA1 proteins, serum protease inhibitor function, serum trypsin protein, and serum functional trypsin are assessed over time monitoring for an increases. Grip test and rotarod times are assessed over time as a correlation for delay in disease progression.

alpha-1 anti-trypsin = settings: cited from earlier work; for augmenting blood and lung alpha-1 anti-trypsin levels compared with Prolastin / safety compared with Prolastin: basis of approval
[2] = target: T1, alpha1-protease inhibitor (Homo sapiens, UniProt P01009); settings: cited from earlier work
T1 construct: a human protein has been isolated from pooled human serum samples and lyophilized; tissue Baxter / Takeda (Aralast NP); host or cells: pooled human serum / plasma
T1 sequence (P01009 25-418): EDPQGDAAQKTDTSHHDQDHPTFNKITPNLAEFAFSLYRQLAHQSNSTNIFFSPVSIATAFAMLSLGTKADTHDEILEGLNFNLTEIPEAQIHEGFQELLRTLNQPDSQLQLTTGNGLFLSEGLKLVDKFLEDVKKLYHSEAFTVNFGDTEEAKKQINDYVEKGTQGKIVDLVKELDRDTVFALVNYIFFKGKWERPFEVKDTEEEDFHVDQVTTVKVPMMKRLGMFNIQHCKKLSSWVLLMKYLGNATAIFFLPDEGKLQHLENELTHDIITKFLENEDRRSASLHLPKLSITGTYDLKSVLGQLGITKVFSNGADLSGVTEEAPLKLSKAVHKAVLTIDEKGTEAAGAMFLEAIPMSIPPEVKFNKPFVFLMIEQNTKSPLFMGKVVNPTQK

| Compound | performance (grip test, rotarod) versus non-treatment group [1] | augmenting blood and lung alpha-1 anti-trypsin levels compared with Prolastin (alpha-1 anti-trypsin) | safety compared with Prolastin (alpha-1 anti-trypsin) | specific activity [2] | safety record (alpha-1 anti-trypsin; marketed since 1988) |
| --- | --- | --- | --- | --- | --- |
| C[C@H]1[C@H](C)CC[C@]2(C(=O)O)CC[C@]3(C)C(=CC[C@@H]4[C@@]5(C)CC[C@H](O)C(C)(C)[C@@H]5CC[C@]43C)[C@H]12 [ursolic acid] | outperform the non-treatment group |  |  |  |  |
| Aralast NP: sterile, lyophilized preparation of human alpha-1 antitrypsin protein derived from large pools of human plasma |  | comparable to Prolastin | comparable to Prolastin | 0.55 mg active alpha1-protease inhibitor/mg of total protein |  |
| Glassia: FDA approved alpha-1 antitrypsin deficiency drug from Kamada Ltd. |  | comparable to Prolastin | comparable to Prolastin |  |  |
| Prolastin: alpha-1 antitrypsin augmentation therapy product from Grifols, marketed since 1988 |  |  |  |  | excellent safety record |
| Zemaira: FDA approved alpha-1 antitrypsin deficiency drug from CSL Behring |  | comparable to Prolastin | comparable to Prolastin |  |  |
